Reference: patent publication US20200263158

Legend:
[1] = test system: blue casein (zymogram gel substrate)
[2] = target: T1, tau FRET peptide OP-002, MCA-GGQVEVKSE{Lys(DNP)}
T1 chain: GGQVEVKSE

[3] = target: T2, tau 4R2N peptide (amino acids 335-353)
T2 chain: GQVEVKSEKLDFKDRVQSK

Molecule: recombinant human tau 4R2N (full-length tau protein)
- autoproteolysis, N-terminal Edman sequencing of fragment F3: The N-terminal sequence of fragment F3 was determined to be SEKLDF corresponding to amino acids 341-346 of Tau 4R2N
- autoproteolysis, N-terminal Edman sequencing of fragments 1-4: The N-terminal sequence of the four fragments was the same: SKDGTG
- zymogram, clearing of blue casein [1]: tau had the ability to cut the casein protein substrate in the zymogram

B1: Tau 4R2N 260-340 (TP-81) (protein)
chain: MIGSTENLKHQPGGGKVQIINKKLDLSNVQSKCGSKDNIKHVPGGGSVQIVYKPVDLSKVTSKCGSLGNIHHKPGGGQVEVK
- fluorescence of FRET peptide, plate reader [2]: Tau 4R2N 260-340 cuts tau FRET peptide

B2: TP-99 (Tau 4R2N 241-340) (protein)
chain: MRLQTAPVPMPDLKNVKSKIGSTENLKHQPGGGKVQIINKKLDLSNVQSKCGSKDNIKHVPGGGSVQIVYKPVDLSKVTSKCGSLGNIHHKPGGGQVEVK
- cleavage of peptide substrate, reverse-phase HPLC [3]: intact peptide which is greatly diminished in the upper trace and replaced with two smaller peaks F1 and F2 that represent fragments generated by TP-99

B3: TP-210 (Tau 4R2N 131-340) (protein)
chain: MSKDGTGSDDKKAKGADGKTKIATPRGAAPPGQKGQANATRIPAKTPPAPKTPPSSGEPPKSGDRSGYSSPGSPGTPGSRSRTPSLPTPPTREPKKVAVVRTPPKSPSSAKSRLQTAPVPMPDLKNVKSKIGSTENLKHQPGGGKVQIINKKLDLSNVQSKCGSKDNIKHVPGGGSVQIVYKPVDLSKVTSKCGSLGNIHHKPGGGQVEVK
- cleavage of peptide substrate, reverse-phase HPLC [3]: intact peptide was greatly diminished in the upper trace and replaced with two smaller peaks F1 and F2 that represent fragments generated by TP-210
